The supplement of paper PMC10065799, “High-throughput profiling of sequence recognition by tyrosine kinases and SH2 domains using bacterial peptide display” (eLife, 2023)

Assays:
Grb2 SH2 = Grb2 SH2 (UniProt P62993); assay: SH2 binding enrichment of the phosphorylated peptide, bacterial display (enrichment ratio); higher = better substrate or ligand; peptides without Tyr show the background
SHP2-C SH2 = assay: as above
c-Src SH2 = assay: as above
Hck = Hck (UniProt P08631); assay: phosphorylation enrichment, bacterial display (enrichment ratio); higher = better substrate or ligand; peptides without Tyr show the background
Jak2 = Jak2 (UniProt O60674); assay: as above
MERTK = MERTK (UniProt Q12866); assay: as above
c-Src = assay: as above
Fer (mouse) = assay: as above
EPHB1 = EPHB1 (UniProt P54762); assay: as above
Fes = Fes (UniProt P07332); assay: as above
EPHB2 = EPHB2 (UniProt P29323); assay: as above
Fyn = Fyn (UniProt P06241); assay: as above
FGFR3 = FGFR3 (UniProt P22607); assay: as above
AncSZ = assay: as above
c-Abl (mouse) = assay: as above
FGFR1 = FGFR1 (UniProt P11362); assay: as above
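Wherever SH2 binding enrichment of the phosphorylated peptide, bacterial display is given: peptide library displayed on the E. coli surface as eCPX fusions, selected cells deep-sequenced, score is each peptide's frequency after selection divided by its frequency in the input.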
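Wherever phosphorylation enrichment, bacterial display is given: 11-residue human phosphosite peptides and single-mutation variants displayed on the E. coli surface, counted by deep sequencing, each peptide's frequency after selection divided by its frequency in the unselected input library; frequency after pTyr selection over input frequency; kinase dosed for 20-30% of maximal phosphorylation in three min.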

Hck, sequence (P08631 whole entry, looked up): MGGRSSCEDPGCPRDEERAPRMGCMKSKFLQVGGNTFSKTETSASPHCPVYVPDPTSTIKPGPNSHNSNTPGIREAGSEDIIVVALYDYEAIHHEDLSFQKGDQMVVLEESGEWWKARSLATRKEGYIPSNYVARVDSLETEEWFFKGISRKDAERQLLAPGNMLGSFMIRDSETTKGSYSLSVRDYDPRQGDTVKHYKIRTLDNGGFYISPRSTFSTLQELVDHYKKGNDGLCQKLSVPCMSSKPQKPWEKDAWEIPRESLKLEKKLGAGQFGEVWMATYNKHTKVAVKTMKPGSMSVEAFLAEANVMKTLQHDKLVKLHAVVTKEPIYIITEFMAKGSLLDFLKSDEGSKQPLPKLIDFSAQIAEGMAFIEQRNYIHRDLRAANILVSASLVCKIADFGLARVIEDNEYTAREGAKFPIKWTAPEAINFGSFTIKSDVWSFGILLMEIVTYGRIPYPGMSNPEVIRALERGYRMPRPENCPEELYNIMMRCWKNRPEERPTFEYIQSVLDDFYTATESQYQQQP
Fes, sequence (P07332 whole entry, looked up): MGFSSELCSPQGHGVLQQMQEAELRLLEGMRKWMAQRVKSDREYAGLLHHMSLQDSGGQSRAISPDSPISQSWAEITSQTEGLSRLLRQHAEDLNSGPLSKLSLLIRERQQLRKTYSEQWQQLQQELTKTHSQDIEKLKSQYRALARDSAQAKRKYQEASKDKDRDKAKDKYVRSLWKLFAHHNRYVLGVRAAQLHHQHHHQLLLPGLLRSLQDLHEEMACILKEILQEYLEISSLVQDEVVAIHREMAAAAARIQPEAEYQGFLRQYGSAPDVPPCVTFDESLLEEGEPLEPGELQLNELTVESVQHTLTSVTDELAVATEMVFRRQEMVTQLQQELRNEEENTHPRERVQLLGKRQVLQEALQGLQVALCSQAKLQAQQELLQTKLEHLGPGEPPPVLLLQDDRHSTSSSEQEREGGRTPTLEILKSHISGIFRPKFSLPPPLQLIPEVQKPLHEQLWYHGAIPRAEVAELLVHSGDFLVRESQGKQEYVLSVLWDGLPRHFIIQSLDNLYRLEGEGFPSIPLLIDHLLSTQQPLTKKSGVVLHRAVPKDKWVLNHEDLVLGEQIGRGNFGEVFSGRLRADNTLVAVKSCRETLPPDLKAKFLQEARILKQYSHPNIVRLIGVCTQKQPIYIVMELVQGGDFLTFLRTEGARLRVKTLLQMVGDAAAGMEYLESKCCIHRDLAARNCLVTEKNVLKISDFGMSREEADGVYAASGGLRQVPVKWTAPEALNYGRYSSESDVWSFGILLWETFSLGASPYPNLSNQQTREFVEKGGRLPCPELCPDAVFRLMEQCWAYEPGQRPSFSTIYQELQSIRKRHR
EPHB2, sequence (P29323 whole entry, looked up): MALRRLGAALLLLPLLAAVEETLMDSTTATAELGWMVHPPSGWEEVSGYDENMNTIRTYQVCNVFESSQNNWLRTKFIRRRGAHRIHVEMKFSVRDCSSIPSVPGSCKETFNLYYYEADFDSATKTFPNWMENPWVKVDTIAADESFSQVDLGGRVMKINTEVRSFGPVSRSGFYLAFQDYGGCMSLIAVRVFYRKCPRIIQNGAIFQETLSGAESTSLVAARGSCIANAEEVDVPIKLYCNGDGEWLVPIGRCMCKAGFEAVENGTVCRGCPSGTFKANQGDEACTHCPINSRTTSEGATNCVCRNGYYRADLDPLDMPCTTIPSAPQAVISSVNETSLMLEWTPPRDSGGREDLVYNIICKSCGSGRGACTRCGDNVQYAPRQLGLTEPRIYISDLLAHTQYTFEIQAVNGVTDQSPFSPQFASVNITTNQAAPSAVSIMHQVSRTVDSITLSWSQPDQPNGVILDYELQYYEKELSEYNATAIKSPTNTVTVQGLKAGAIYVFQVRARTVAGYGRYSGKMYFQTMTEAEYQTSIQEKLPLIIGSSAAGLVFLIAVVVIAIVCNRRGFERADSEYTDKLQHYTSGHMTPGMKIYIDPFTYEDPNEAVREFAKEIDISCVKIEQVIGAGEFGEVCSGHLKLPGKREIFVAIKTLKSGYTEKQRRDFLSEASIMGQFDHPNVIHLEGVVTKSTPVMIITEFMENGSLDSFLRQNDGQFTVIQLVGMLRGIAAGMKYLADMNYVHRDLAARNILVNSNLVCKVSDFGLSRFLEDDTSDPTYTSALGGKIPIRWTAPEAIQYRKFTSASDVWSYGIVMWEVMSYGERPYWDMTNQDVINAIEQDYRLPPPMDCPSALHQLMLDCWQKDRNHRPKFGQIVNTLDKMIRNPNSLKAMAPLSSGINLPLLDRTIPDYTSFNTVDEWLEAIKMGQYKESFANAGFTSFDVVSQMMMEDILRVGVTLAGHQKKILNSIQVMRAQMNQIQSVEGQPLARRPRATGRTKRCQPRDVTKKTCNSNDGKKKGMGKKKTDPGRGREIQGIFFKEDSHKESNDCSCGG
FGFR3, sequence (P22607 whole entry, looked up): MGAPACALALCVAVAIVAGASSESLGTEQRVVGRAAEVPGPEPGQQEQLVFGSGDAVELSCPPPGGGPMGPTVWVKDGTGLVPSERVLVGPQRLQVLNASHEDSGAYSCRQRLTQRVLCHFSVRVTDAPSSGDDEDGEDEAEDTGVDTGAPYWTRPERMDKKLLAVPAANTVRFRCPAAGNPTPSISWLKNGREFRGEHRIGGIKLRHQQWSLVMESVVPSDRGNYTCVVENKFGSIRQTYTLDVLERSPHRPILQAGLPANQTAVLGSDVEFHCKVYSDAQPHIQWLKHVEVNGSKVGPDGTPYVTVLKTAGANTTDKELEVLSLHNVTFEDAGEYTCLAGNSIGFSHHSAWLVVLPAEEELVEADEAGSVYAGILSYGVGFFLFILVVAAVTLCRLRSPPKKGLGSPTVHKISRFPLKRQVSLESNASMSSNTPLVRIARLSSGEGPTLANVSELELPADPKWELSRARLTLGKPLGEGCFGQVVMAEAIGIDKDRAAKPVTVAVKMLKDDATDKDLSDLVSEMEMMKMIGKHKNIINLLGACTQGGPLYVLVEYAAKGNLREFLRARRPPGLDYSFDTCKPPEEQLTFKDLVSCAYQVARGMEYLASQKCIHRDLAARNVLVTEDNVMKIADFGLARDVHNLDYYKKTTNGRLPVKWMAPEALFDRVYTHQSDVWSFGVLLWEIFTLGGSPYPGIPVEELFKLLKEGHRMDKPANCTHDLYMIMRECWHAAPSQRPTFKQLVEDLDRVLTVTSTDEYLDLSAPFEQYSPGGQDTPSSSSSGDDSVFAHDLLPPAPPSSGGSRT
MERTK, sequence (Q12866 whole entry, looked up): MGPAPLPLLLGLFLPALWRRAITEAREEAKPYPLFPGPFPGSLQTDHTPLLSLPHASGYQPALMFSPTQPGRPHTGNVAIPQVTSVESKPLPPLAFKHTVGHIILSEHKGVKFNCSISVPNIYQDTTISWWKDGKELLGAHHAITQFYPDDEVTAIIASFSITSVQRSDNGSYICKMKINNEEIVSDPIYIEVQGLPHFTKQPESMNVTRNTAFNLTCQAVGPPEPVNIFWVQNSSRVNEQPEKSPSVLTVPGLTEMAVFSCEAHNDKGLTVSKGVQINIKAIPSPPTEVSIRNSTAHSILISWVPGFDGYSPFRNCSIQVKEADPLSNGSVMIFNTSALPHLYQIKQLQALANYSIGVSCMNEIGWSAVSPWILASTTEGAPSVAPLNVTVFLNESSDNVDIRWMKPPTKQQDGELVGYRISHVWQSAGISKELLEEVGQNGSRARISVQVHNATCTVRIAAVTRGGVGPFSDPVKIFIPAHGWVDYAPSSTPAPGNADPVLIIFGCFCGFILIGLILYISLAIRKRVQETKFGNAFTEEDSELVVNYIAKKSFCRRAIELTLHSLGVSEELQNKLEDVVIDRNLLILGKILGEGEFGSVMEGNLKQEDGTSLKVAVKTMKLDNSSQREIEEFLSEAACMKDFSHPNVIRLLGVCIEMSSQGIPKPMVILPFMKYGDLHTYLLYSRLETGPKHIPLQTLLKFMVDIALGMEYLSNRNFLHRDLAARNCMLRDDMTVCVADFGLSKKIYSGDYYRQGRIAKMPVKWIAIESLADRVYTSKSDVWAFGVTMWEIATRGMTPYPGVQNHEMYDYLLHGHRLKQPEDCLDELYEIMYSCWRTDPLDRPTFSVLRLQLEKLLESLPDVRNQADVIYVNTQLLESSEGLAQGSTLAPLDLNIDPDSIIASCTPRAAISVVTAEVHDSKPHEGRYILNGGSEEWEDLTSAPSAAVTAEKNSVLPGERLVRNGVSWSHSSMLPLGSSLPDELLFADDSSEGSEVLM
FGFR1, sequence (P11362 whole entry, looked up, the tested form may be a part): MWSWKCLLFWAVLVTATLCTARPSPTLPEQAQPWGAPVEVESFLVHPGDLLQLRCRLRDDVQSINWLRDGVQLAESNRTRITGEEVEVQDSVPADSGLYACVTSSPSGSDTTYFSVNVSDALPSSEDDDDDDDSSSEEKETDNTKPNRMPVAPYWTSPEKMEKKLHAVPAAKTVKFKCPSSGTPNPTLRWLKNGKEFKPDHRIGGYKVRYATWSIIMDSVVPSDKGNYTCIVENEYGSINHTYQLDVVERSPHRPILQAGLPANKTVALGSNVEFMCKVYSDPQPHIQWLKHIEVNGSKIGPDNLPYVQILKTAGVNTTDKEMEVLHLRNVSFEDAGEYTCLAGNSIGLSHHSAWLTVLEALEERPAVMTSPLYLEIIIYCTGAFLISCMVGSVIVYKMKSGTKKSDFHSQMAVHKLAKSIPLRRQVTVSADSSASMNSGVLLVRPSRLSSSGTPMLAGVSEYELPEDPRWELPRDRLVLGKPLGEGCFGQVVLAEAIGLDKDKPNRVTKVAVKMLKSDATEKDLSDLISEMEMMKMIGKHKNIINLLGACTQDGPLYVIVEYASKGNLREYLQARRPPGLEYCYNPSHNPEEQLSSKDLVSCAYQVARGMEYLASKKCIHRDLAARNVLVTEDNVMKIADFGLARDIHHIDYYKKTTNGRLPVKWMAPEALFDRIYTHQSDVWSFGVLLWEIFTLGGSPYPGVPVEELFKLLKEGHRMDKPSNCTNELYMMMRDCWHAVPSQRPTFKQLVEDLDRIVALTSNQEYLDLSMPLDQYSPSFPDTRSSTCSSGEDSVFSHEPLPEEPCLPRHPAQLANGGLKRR

Row | SH2 binding enrichment (Grb2 SH2) | SH2 binding enrichment (SHP2-C SH2) | SH2 binding enrichment (c-Src SH2) | Sequence | phosphorylation enrichment (Hck) | phosphorylation enrichment (Jak2) | phosphorylation enrichment (MERTK) | phosphorylation enrichment (c-Src) | phosphorylation enrichment (Fer (mouse)) | phosphorylation enrichment (EPHB1) | phosphorylation enrichment (Fes) | phosphorylation enrichment (EPHB2) | phosphorylation enrichment (Fyn) | phosphorylation enrichment (FGFR3) | phosphorylation enrichment (AncSZ) | phosphorylation enrichment (c-Abl (mouse)) | phosphorylation enrichment (FGFR1)
1 | 1.14 | 0.762 | 1.24 | NTYEKYWPFYQ [GATM_Y103] | 4.39 | 1.93 | 5.5 | 5 | 1.92 | 6.55 | 2.3 | 8.15 | 5.72 | 1.89 | 1.41 | 1.17 | 2.76
2 | 1.01 | 0.893 | 0.76 | KACNPYKPPGP | 0.496 | 0.881 | 0.543 | 0.699 | 0.521 | 0.464 | 0.663 | 0.478 | 0.521 | 0.589 | 0.629 | 0.524 | 0.462
3 | 0.74 | 0.493 | 0.434 | TNGFTYGSSHQ [MANEA_Y331] | 0.443 | 0.413 | 0.441 | 0.404 | 0.514 | 0.444 | 0.576 | 0.31 | 0.492 | 0.39 | 0.566 | 0.412 | 0.525
4 | 0.736 | 0.857 | 0.543 | ILDEAYVMAGA [ERBB2_Y772_V777A] | 0.537 | 0.986 | 0.507 | 0.744 | 0.516 | 0.662 | 1.27 | 0.67 | 0.596 | 0.789 | 1.48 | 0.761 | 0.639
5 | 0.89 | 0.856 | 0.471 | SVTCTYSPDLN [TP53_Y126_A129D] | 0.583 | 1.31 | 0.437 | 0.563 | 0.629 | 0.757 | 1.71 | 0.71 | 0.502 | 0.985 | 1.5 | 0.915 | 0.533
6 | 1 | 0.941 | 7.73 | FVTSMYNEILM [TRPV1_Y310] | 0.957 | 1.39 | 0.756 | 0.693 | 3.38 | 0.765 | 1.38 | 0.596 | 0.647 | 0.932 | 1.16 | 0.832 | 0.641
7 | 1.01 | 0.672 | 0.446 | EEKKKYFDAKI [CASP5_Y103_T106A_YF] | 0.442 | 0.684 | 0.501 | 0.479 | 0.401 | 0.385 | 0.818 | 0.43 | 0.4 | 0.464 | 0.798 | 0.58 | 0.488
8 | 0.851 | 0.764 | 0.534 | KVDKEYEVGVR [GHR_Y226_R229G] | 0.452 | 0.553 | 0.41 | 0.414 | 0.398 | 0.434 | 0.796 | 0.48 | 0.401 | 0.493 | 0.752 | 0.658 | 0.472
9 | 0.838 | 0.811 | 0.504 | TVINKYQGKLF [HGD_Y249] | 0.447 | 0.545 | 0.398 | 0.449 | 0.372 | 0.336 | 0.596 | 0.436 | 0.414 | 0.401 | 0.514 | 0.513 | 0.473
10 | 0.859 | 0.647 | 0.647 | TARREYMHSPS [CPOX_Y429_W427R] | 0.471 | 0.468 | 0.43 | 0.432 | 0.396 | 0.345 | 0.656 | 0.449 | 0.63 | 0.355 | 0.489 | 0.507 | 0.349
11 | 0.926 | 0.719 | 0.527 | PLLEFYWDIFT [CDAN1_Y713_R714W_YF] | 0.458 | 1.17 | 0.284 | 0.412 | 0.527 | 0.833 | 1.2 | 0.645 | 0.448 | 0.94 | 0.971 | 0.828 | 0.428
12 | 0.816 | 0.806 | 0.502 | ILTLKYPIEHG [ACTA1_Y71] | 0.453 | 0.584 | 0.391 | 0.376 | 0.391 | 0.476 | 0.78 | 0.485 | 0.437 | 0.592 | 0.716 | 0.57 | 0.47
13 | 0.912 | 0.593 | 0.529 | AAVDTYCRHNF [HLA-DRB1_Y107_YF] | 0.501 | 0.88 | 0.497 | 0.548 | 0.589 | 0.562 | 1.04 | 0.516 | 0.415 | 0.715 | 0.794 | 0.755 | 0.426
14 | 0.677 | 0.631 | 0.803 | IDDNQYAFLKA [HNF4A_Y286_E285Q_YF] | 1.64 | 0.709 | 0.84 | 0.553 | 0.852 | 0.494 | 0.839 | 0.487 | 0.604 | 1.61 | 0.823 | 1.02 | 2.5
15 | 0.874 | 0.847 | 0.633 | HFVDEYDLTIE [KRAS_Y32_P34L] | 0.749 | 2.13 | 0.812 | 0.922 | 0.841 | 0.711 | 2.16 | 0.423 | 0.811 | 1.14 | 2.56 | 1.4 | 0.752
16 | 0.787 | 0.571 | 0.468 | ESSKAYERALS [TTC37_Y1074] | 0.444 | 0.594 | 0.417 | 0.409 | 0.418 | 0.413 | 0.816 | 0.624 | 0.412 | 0.476 | 0.77 | 0.618 | 0.423
17 | 0.8 | 0.681 | 0.542 | IFRASYVPFAA [RBM47_Y541_G538R_YF] | 0.506 | 0.784 | 0.389 | 0.384 | 0.388 | 0.645 | 1.04 | 0.548 | 0.463 | 0.635 | 0.859 | 0.527 | 0.508
18 | 1.2 | 1.24 | 1.17 | KGKLIYLLGDS [NXPE1_Y350] | 0.478 | 0.639 | 0.343 | 0.661 | 0.471 | 0.391 | 0.922 | 0.42 | 0.551 | 0.521 | 0.803 | 0.529 | 0.434
19 | 1.87 | 2.53 | 2.6 | CTTIHYNYMCI [TP53_Y234_N239I] | 0.494 | 0.859 | 1.41 | 0.462 | 1.05 | 5.99 | 1 | 2.4 | 0.487 | 1.55 | 0.946 | 0.509 | 2.52
20 | 0.785 | 0.576 | 0.48 | MRTMGYMPREM [CABP5_Y62_T65R] | 0.405 | 0.606 | 0.435 | 0.356 | 0.411 | 0.369 | 0.594 | 0.374 | 0.438 | 0.508 | 0.494 | 0.507 | 0.397
21 | 0.948 | 0.635 | 0.58 | QFRFIYMAVQH [PTPN11_Y515_YF] | 1.42 | 2.21 | 0.858 | 1.97 | 1.3 | 1.06 | 2.52 | 0.704 | 0.939 | 1.22 | 2.5 | 1.73 | 0.544
22 | 1.08 | 0.882 | 0.877 | RFLERDIYNRE [HLA-DPB1_Y57_Y57D] | 10.7 | 0.764 | 1.26 | 1.8 | 1.85 | 1.74 | 2.16 | 1.48 | 5.19 | 2.92 | 2.71 | 0.787 | 1.18
23 | 0.872 | 0.898 | 0.595 | NFDLDYDSVQP [MYC_Y16_YF] | 0.575 | 1.06 | 0.458 | 0.814 | 0.591 | 1.28 | 0.974 | 0.923 | 0.572 | 0.608 | 2 | 0.68 | 0.573
24 | 0.739 | 0.595 | 0.466 | ASMAKYYASGI [ACADSB_Y372_E376G] | 0.434 | 0.604 | 0.518 | 0.444 | 0.473 | 0.327 | 0.653 | 0.556 | 0.451 | 0.568 | 0.71 | 0.851 | 0.36
25 | 0.771 | 0.863 | 1.09 | GPGGDYAAMGA [ERBB3_Y1276] | 0.527 | 0.604 | 0.511 | 0.494 | 0.488 | 1.3 | 0.766 | 0.903 | 0.414 | 0.605 | 0.6 | 0.572 | 0.776
26 | 1.64 | 1.47 | 2.14 | CTTFHYNFMCN [TP53_Y234_I232F_YF] | 0.479 | 0.866 | 0.4 | 0.595 | 0.581 | 0.468 | 1.1 | 0.57 | 0.501 | 0.672 | 0.923 | 0.641 | 0.579
27 | 1.04 | 0.629 | 0.561 | PGVNYYFQVSA | 1.03 | 2.79 | 0.734 | 0.692 | 0.907 | 1.61 | 2.14 | 1.49 | 0.611 | 3.16 | 2.15 | 1.48 | 2.98
28 | 0.723 | 0.576 | 0.396 | LGSNGYKKLLK [SEPSECS_Y334] | 0.635 | 0.59 | 0.773 | 0.755 | 0.351 | 0.42 | 0.841 | 0.437 | 0.879 | 0.636 | 0.697 | 0.543 | 0.338
29 | 0.917 | 1.11 | 0.918 | VDYQPYRKHKY [TEX37_Y28] | 0.484 | 0.483 | 0.302 | 0.35 | 0.425 | 0.314 | 0.518 | 0.356 | 0.436 | 0.416 | 0.627 | 0.53 | 0.423
